Earlier results in publication PMC13348789.

Target: IL-2Rβ/γc intermediate-affinity receptor (Homo sapiens) (UniProt P14784)
Sequence of UniProt P14784 (P14784 27-240, chain 1 of 2): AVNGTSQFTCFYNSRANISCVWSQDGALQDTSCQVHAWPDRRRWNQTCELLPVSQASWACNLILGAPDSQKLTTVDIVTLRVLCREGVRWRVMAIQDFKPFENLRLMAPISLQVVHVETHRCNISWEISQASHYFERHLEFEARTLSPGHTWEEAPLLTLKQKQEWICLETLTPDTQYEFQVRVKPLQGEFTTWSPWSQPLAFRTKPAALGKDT
Sequence of UniProt P14784 (P31785 23-262, chain 2 of 2, further chain): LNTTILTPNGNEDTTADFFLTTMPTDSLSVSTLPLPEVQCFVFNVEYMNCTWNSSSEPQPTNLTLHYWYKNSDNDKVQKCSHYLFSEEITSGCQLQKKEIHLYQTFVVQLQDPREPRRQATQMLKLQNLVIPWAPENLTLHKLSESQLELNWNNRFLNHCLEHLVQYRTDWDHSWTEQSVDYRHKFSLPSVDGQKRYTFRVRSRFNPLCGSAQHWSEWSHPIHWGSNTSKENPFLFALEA

Kd: 1 nM
Substance: IL-2 (from UniProt P60568)
